Residue numbers refer to the chain shown, from its start.
T1: murine fibroblast activation protein (FAP) (murine, UniProt P97321 1-761)
T1 construct: whole, on cells; also called mFAP; murine FAP
T1 sequence: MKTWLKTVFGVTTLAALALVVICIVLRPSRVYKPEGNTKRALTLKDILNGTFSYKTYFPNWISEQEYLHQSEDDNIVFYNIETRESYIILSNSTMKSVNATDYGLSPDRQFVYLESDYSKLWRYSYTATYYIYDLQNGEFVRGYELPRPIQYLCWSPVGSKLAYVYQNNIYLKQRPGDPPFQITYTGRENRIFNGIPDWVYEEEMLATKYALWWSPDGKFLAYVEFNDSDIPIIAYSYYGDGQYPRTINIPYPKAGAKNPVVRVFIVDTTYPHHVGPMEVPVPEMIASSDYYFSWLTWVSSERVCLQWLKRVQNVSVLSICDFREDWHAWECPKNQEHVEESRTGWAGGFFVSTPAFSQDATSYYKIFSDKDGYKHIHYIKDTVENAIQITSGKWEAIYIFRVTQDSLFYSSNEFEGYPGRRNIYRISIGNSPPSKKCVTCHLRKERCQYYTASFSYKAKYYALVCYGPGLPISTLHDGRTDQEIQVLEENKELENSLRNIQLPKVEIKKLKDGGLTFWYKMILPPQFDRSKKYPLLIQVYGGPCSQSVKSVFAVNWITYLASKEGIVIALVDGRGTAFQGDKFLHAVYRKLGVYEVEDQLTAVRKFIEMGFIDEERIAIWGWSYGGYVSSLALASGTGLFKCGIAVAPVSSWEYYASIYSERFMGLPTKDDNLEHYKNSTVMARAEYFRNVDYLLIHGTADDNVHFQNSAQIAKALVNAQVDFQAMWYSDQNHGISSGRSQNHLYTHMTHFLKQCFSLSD

B1: m38-pMHC-I-anti-FAP-IgG (other)
heavy 1: SSPPMFRVGCGGSGGGGSGGGGSIQKTPQIQVYSRHPPENGKPNILNCYVTQFHPPHIEIQMLKNGKKIPKVEMSDMSFSKDWSFYILAHTEFTPTETDTYACRVKHASMAEPKTVYWDRDMGGGGSGGGGSGGGGSGGGGSGPHSLRYFVTAVSRPGLGEPRYMEVGYVDDTEFVRFDSDAENPRYEPRARWMEQEGPEYWERETQKAKGNEQSFRVDLRTLLGCYNQSKGGSHTIQVISGCEVGSDGRLLRGYQQYAYDGCDYIALNEDLKTWTAADMAALITKHKWEQAGEAERLRAYLEGTCVEWLRRYLKNGNATLLRTDSPKAHVTHHSRPEDKVTLRCWALGFYPADITLTWQLNGEELIQDMELVETRPAGDGTFQKWASVVVPLGKEQYYTCHVYHQGLPEPLTLRWGSEVQLLESGGGLVQPGGSLRLSCAASGFTFSSHAMSWVRQAPGKGLEWVSAIWASGEQYYADSVKGRFTISRDNSKNTLYLQMNSLRAEDTAVYYCAKGWLGNFDYWGQGTLVTVSSAKTTAPSVYPLAPVCGGTTGSSVTLGCLVKGYFPEPVTLTWNSGSLSSGVHTFPALLQSGLYTLSSSVTVTSNTWPSQTITCNVAHPASSTKVDKKIEPRVPITQNPCPPLKECPPCAAPDAAGGPSVFIFPPKIKDVLMISLSPMVTCVVVDVSEDAPDVQISWFVNNVEVHTAQTQTHREDYNSTLRVVSALPIQHQDWMSGKEFKCKVNNRALGSPIEKTISKPRGPVRAPQVCVLPPPAEEMTKKEFSLSCAITGFLPAEIAVDWTSNGRTEQNYKNTATVLDSDGSYFMVSKLRVQKSTWERGSLFACSVVHEGLHNHLTTKTISRSLGK
heavy 2: EVQLLESGGGLVQPGGSLRLSCAASGFTFSSHAMSWVRQAPGKGLEWVSAIWASGEQYYADSVKGRFTISRDNSKNTLYLQMNSLRAEDTAVYYCAKGWLGNFDYWGQGTLVTVSSAKTTAPSVYPLAPVCGGTTGSSVTLGCLVKGYFPEPVTLTWNSGSLSSGVHTFPALLQSGLYTLSSSVTVTSNTWPSQTITCNVAHPASSTKVDKKIEPRVPITQNPCPPLKECPPCAAPDAAGGPSVFIFPPKIKDVLMISLSPMVTCVVVDVSEDAPDVQISWFVNNVEVHTAQTQTHREDYNSTLRVVSALPIQHQDWMSGKEFKCKVNNRALGSPIEKTISKPRGPVRAPQVYVLPPCAEEMTKKEFSLWCMITGFLPAEIAVDWTSNGRTEQNYKNTATVLDSDGSYFMYSKLRVQKSTWERGSLFACSVVHEGLHNRFTTKTISRSLGK
light: EIVLTQSPGTLSLSPGERATLSCRASQSVSRSYLAWYQQKPGQAPRLLIIGASTRATGIPDRFSGSGSGTDFTLTISRLEPEDFAVYYCQQGQVIPPTFGQGTKVEIKRADAAPTVSIFPPSSEQLTSGGASVVCFLNNFYPKDINVKWKIDGSERQNGVLNSWTDQDSKDSTYSMSSTLTLTKDEYERHNSYTCEATHKTSTSPIVKSFNRNEC
notes: also called mCMV m38-pMHC-I-anti-FAP-IgG; pMHC-I-IgG
B2: IE3-pMHC-I-anti-FAP-IgG (other)
heavy 1: B1 heavy 1 with S1R, S2A, P3L, P4E, M5Y, F6K, R7N, V8L
heavy 2: B1 heavy 2
light: B1 light
notes: Same build as m38-pMHC-I-anti-FAP-IgG, with the control peptide IE3; also called mCMV IE3-pMHC-I-anti-FAP-IgG; control fusion protein

Molecular target: T1, murine fibroblast activation protein …
Experiment: flow cytometry on target cells (data not shown)

Row | Binder | binding result
1 | B1 | binds
2 | B2 | binds

Source: US20220073630A1 (Hoffmann-La Roche, published 2022)
